Experimental data as given in PMC8166883 (2020).
Positions count from the first letter of the chain named.

B1: FLAG-tagged human vascular endothelial growth factor-A (FLAG-hVEGF-A) (ligand)
chain: APMAEGGGQNHHEVVKFMDVYQRSYCHPIETLVDIFQEYPDEIEYIFKPSCVPLMRCGGCCNDEGLECVPTEESNITMQIMRIKPHQGQHIGEMSFLQHNKCECRPKKDRARQENPCGPCSERRKHLFVQDPQTCKCSCKNTDSRCKARQLELNERTCRCDKPRR
B2: anti-hVEGF-A clone A033AM-19 (affinity-matured from A033) (antibody, V domains shown)
VH: EVELVQSGAEVKKPGSSVKVSCKASGGTFSDYSISWVRQAPGQGLEWMGGIIPIFGTPNYAQKFQGRVTITADESTSTAYMELSSLRSEDTAVYYCADGGAYCGGDCYSGYYYYGMDVWGQGTTVTVSS
VL: QSALTQPASVSGSPGQSITISCTGTSSDVGGYNLVSWYQQHPGKAPKLMIYQDNNKRPSGVSNRFSGSKSGNTASLTISGLQAEDEADYYCSYTNDSNSQVFGGGTKLTVL
B3: anti-hVEGF-A clone A033 (antibody, V domains shown)
VH: B2 VH with D31S, S33A
VL: B2 VL

Tests used:
Assay in all cases: SPR
B021 = molecular target: B021
B015 = molecular target: B015
[1] = molecular target: B1

Binder | Kd (B021) | koff (B021) | Kd (B015) | koff (B015) | koff [1]
B1 | 903 pM | 0.000577 s⁻¹ | 29.4 pM | 0.000549 s⁻¹ | 
B2 |  |  |  |  | 0.000411 s⁻¹
B3 |  |  |  |  | 0.00405 s⁻¹
